Values of other authors, collected in publication PMC5095918.

Molecular target: FANCL RING (Homo sapiens) (UniProt Q9NW38)
UniProt Q9NW38, sequence (Q9NW38 304-366): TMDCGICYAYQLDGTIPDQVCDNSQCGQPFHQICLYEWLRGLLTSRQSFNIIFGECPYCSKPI

UBE2T (from UniProt Q9NPD8)
Kd: 450 nM
